Results on three substances are retold here after article PMC2139828.

Common to all, as to experiment: SDS-PAGE under nonreducing conditions
Test [1] deals with rFN(AC), recombinant human fibronectin isoform containing EDA but lacking EDB (human).
Test [2] has as its target rFN(BAC), recombinant human fibronectin isoform containing both EDA and EDB segments (human).
The target in test [3] is rFN(C), recombinant human fibronectin isoform lacking both EDA and EDB segments (human).

As to “rFN(AC), recombinant human fibronectin isoform containing EDA but lacking EDB (natural protein)”, the stoichiometry N (in general, the number of molecules, sites or subunits per partner or assembly) in test [1] came to 2.
With “rFN(BAC), recombinant human fibronectin isoform containing both EDA and EDB segments (natural protein)”, the stoichiometry N in test [2] was 2.
In the case of “rFN(C), recombinant human fibronectin isoform lacking both EDA and EDB segments (natural protein)”, the stoichiometry N in test [3] was determined as 2.
